From patent US20170145086A1

Key:
[1] = molecular target: HA-GCN4 hAPRIL (amino acid residues 105-250) (human) (UniProt O75888); test: blocking ELISA; blocked: human APRIL binding to human BCMA-Fc
[2] = molecular target: HA-GCN4 hAPRIL (amino acid residues 105-250) (human) (UniProt O75888); test: blocking ELISA; blocked: human APRIL binding to human TACI-Fc
[3] = molecular target: HA-GCN4 hAPRIL (amino acid residues 105-250) (human) (UniProt O75888); test: blocking ELISA, 4-parameter fit; blocked: human APRIL binding to human BCMA-Fc
[4] = molecular target: HA-GCN4 hAPRIL (amino acid residues 105-250) (human) (UniProt O75888); test: blocking ELISA; blocked: APRIL binding to TACI-Fc
[5] = molecular target: HA-GCN4 hAPRIL (amino acid residues 105-250) (human) (UniProt O75888); test: blocking ELISA, 4-parameter fit; blocked: human APRIL binding to human TACI-Fc
[6] = molecular target: HA-GCN4 hAPRIL (amino acid residues 105-250) (human) (UniProt O75888); test: indirect ELISA, purified antibody, 3-parameter fit

HA-GCN4 hAPRIL (amino acid residues 105-250) (human), sequence (O75888 105-250): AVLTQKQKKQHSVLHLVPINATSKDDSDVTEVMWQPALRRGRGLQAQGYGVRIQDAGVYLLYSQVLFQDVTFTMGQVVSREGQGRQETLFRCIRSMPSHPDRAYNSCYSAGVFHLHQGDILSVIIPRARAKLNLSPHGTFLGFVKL

- % Inhibition [1]: 99%
- % Inhibition [2]: 99%
- IC50 [3]: 3.14 nM
- IC50 [4]: 0.204 µg/mL
- IC50 [5]: 2.85 nM
- EC50 [6]: 0.0104 µg/mL
B1: 0201 (antibody, from another filing)
scFv: EVQLVQSGAEVKKPGASVKVSCKTSGYTFTDNYMHWVRQAPGQGLEWMGWISPNSSTTLYAQKFRGRVTLTRDTSVSTAYMELSGLDSDDTALYFCARGGRLAGSTVFTPAFEYWGRGTMVTVSSGGGGSGGGGSGGGGSAQAVLTQPSSVSEAPRQRVTISCSGSSSNIGNNAVKWYQQLPGKAPKLLIYYDDLLPSGVSDRFSGSKSGTSASLAISGLQSEDEADYYCAAWDDSLNGYVFGTGTKVTVLG
